From patent US9944954B2, “Glycerol 3-phosphate dehydrogenase for butanol production” (BUTAMAX ADVANCED BIOFUELS LLC, priority 2013, dated 2018)

Experiments:
[1] = tested on: NC(=O)C1=CN([C@@H]2O[C@H](COP(=O)(O)OP(=O)(O)OC[C@H]3O[C@@H](n4cnc5c(N)ncnc54)[C@H](OP(=O)(O)O)[C@@H]3O)[C@@H](O)[C@H]2O)C=CC1; assay: cells, lysate or membranes named; conditions: pH 6.8; 30.0 °C
[2] = tested on: NC(=O)C1=CN([C@@H]2O[C@H](COP(=O)(O)OP(=O)(O)OC[C@H]3O[C@@H](n4cnc5c(N)ncnc54)[C@H](O)[C@@H]3O)[C@@H](O)[C@H]2O)C=CC1; assay: cells, lysate or membranes named; conditions: pH 6.8; 30.0 °C
[3] = tested on: E. coli gpsA (glycerol-3-phosphate dehydrogenase); conditions: cited from earlier work; for affinity for the cofactors NADH and NADPH: Edgar and Bell, JBC 255:3492-7 (1980)
[4] = tested on: Saccharomyces phosphatase GPP1; conditions: Norbeck, JBC 271:13875-81 (1996); cited from earlier work
[5] = tested on: Saccharomyces phosphatase GPP2; conditions: Norbeck, JBC 271:13875-81 (1996); cited from earlier work
[6] = tested on: Dunaliella viridis GPDH1; conditions: read-out: NADH KM; He et al, 2009; cited from earlier work
[7] = tested on: Jaculus orientalis GPD; conditions: read-out: NADH KM; Berrada et al, 2002; cited from earlier work
[8] = tested on: Saccharomyces cerevisiae GPD1; conditions: read-out: NADH KM; Albertyn et al. 1992; cited from earlier work
[9] = tested on: Dunaliella viridis GPDH2; conditions: read-out: NADH KM; He et al, 2009; cited from earlier work
[10] = tested on: Drosophila melanogaster GPDH1 (flight muscle); conditions: read-out: NADH KM; Niesel et al, 1982; cited from earlier work
[11] = tested on: Leishmania mexicana GPD; conditions: read-out: NADH KM; Marche et al, 2000; cited from earlier work
[12] = substrate: NC(=O)C1=CN([C@@H]2O[C@H](COP(=O)(O)OP(=O)(O)OC[C@H]3O[C@@H](n4cnc5c(N)ncnc54)[C@H](O)[C@@H]3O)[C@@H](O)[C@H]2O)C=CC1; assay: purified protein, by the assay type; conditions: pH 6.8, 30.0 °C
[13] = substrate: NC(=O)C1=CN([C@@H]2O[C@H](COP(=O)(O)OP(=O)(O)OC[C@H]3O[C@@H](n4cnc5c(N)ncnc54)[C@H](O)[C@@H]3O)[C@@H](O)[C@H]2O)C=CC1; assay: cells, lysate or membranes named; format: biochemical, Saccharomyces cerevisiae; conditions: E. coli expressed, 30.0 °C
Description: Glycerol-3-phosphate production was measured by LC/MS.
The data used in this section are provided in Table 11, and includes measurements of the metabolic products and the in vitro measurements of GPD as described above.

[14] = substrate: NC(=O)C1=CN([C@@H]2O[C@H](COP(=O)(O)OP(=O)(O)OC[C@H]3O[C@@H](n4cnc5c(N)ncnc54)[C@H](OP(=O)(O)O)[C@@H]3O)[C@@H](O)[C@H]2O)C=CC1; assay: purified protein, by the assay type; conditions: pH 6.8; 30.0 °C
[15] = substrate: NC(=O)C1=CN([C@@H]2O[C@H](COP(=O)(O)OP(=O)(O)OC[C@H]3O[C@@H](n4cnc5c(N)ncnc54)[C@H](OP(=O)(O)O)[C@@H]3O)[C@@H](O)[C@H]2O)C=CC1; assay: cells, lysate or membranes named; conditions: pH 6.8; 30.0 °C; remark: listed apart in the source
[16] = substrate: NC(=O)C1=CN([C@@H]2O[C@H](COP(=O)(O)OP(=O)(O)OC[C@H]3O[C@@H](n4cnc5c(N)ncnc54)[C@H](O)[C@@H]3O)[C@@H](O)[C@H]2O)C=CC1; assay: cells, lysate or membranes named; conditions: pH 6.8; 30.0 °C; remark: listed apart in the source
[17] = other: GPD1 WT_y, crude cell extract, pH 6.8, 1 mM dihydroxyacetone phosphate

Rickettsia prowazekii str. BuV67-CWPP GPD (gene SEQ ID NO: 16; SEQ ID NO: 192) (Rickettsia prowazekii str. Madrid E)
Km [1]: 4 µM
Km [2]: 664 µM

O=P(O)(O)OC[C@H](O)CO [glycerol-3-phosphate]
product inhibition by glycerol-3-phosphate [3]: product inhibited
Michaelis constant [4]: 3.1
Michaelis constant [5]: 3.9

NC(=O)C1=CN([C@@H]2O[C@H](COP(=O)(O)OP(=O)(O)OC[C@H]3O[C@@H](n4cnc5c(N)ncnc54)[C@H](OP(=O)(O)O)[C@@H]3O)[C@@H](O)[C@H]2O)C=CC1 [NADPH, reduced nicotinamide adenine dinucleotide phosphate]
affinity for the cofactors NADH and NADPH [3]: substantially the same affinity

NC(=O)C1=CN([C@@H]2O[C@H](COP(=O)(O)OP(=O)(O)OC[C@H]3O[C@@H](n4cnc5c(N)ncnc54)[C@H](O)[C@@H]3O)[C@@H](O)[C@H]2O)C=CC1 [NADH, reduced nicotinamide adenine dinucleotide]
Km [6]: 58.9 µM
affinity for the cofactors NADH and NADPH [3]: substantially the same affinity
Km [7]: 32 µM
Km [8]: 23 µM
Km [9]: 59.2 µM
Km [10]: 78 µM
Km [11]: 24 µM

B1: Drosophila melanogaster glycerol 3 phosphate dehydrogenase, isoform C (gi: 22945708) (Drosophila melanogaster) (protein)
chain: MADKVNVCIVGSGNWGSAIAKIVGANAAALPEFEERVTMFVYEELIDGKKLTEIINETHENVKYLKGHKLPPNVVAVPDLVEAAKNADILIFVVPHQFIPNFCKQLLGKIKPNAIAISLIKGFDKAEGGGIDLISHIITRHLKIPCAVLMGANLANEVAEGNFCETTIGCTDKKYGKVLRDLFQANHFRVVVVDDADAVEVCGALKNIVACGAGFVDGLKLGDNTKAAVIRLGLMEMIRFVDVFYPGSKLSTFFESCGVADLITTCYGGRNRRVSEAFVTSGKTIEELEKEMLNGQKLQGPPTAEEVNYMLKNKGLEDKFPLFTAIHKICTNQLKPNDLIDCIRNHPEHMDTSIMPSPKL
Km ([12]; other: one experiment, in parallel with Saccharomyces GPD1, E. coli expressed): 5 µM

B2: Saccharomyces cerevisiae GPD1 (glycerol-3-phosphate dehydrogenase), wild type, SEQ ID NO: 195 (Saccharomyces cerevisiae S288C) (protein)
chain: MSAAADRLNLTSGHLNAGRKRSSSSVSLKAAEKPFKVTVIGSGNWGTTIAKVVAENCKGYPEVFAPIVQMWVFEEEINGEKLTEIINTRHQNVKYLPGITLPDNLVANPDLIDSVKDVDIIVFNIPHQFLPRICSQLKGHVDSHVRAISCLKGFEVGAKGVQLLSSYITEELGIQCGALSGANIATEVAQEHWSETTVAYHIPKDFRGEGKDVDHKVLKALFHRPYFHVSVIEDVAGISICGALKNVVALGCGFVEGLGWGNNASAAIQRVGLGEIIRFGQMFFPESREETYYQESAGVADLITTCAGGRNVKVARLMATSGKDAWECEKELLNGQSAQGLITCKEVHEWLETCGSVEDFPLFEAVYQIVYNNYPMKNLPDMIEELDLHED
notes: also native or codon-optimized GPD1 in yeast PNY2145-derived strains (T12); full length 391 aa
Km [13, 17]: 13 µM
Vmax [13, 17]: 9000 µM/min
Km ([13]; other: one experiment, in parallel with Drosophila isoform C, pH 6.8): 5 µM

B3: Beggiatoa alba GPD (SEQ ID NO: 17; SEQ ID NO: 193) (Beggiatoa alba B18LD) (protein)
chain: MLSPSALLVLGAGSWGTALALALARRQYPIYLWGKDPAHVHTLQIQRCNQRFLPNAVFPDNLYAITDFVTLMPIVEDIIIVVPSHGFRETLKKIKPYITKNHRLCWATKGLEYQTGLLLHEVARAELGDNIPLAVLSGPSFAGEVAAALPTAVTIAAQDIENAHHVAQLFHQASFRAYTSNDMVGVQIGGAVKNVIAIAAGIADGLKMGANTRAALITRGLSEIVRLGIALGGQRETFMGLAGLGDLVLTCTDNQSRNRRFGYALAQGISLEAAQAQVGQVVEGIHAATITHQLAQQHGVEMPIVNHVNQVLTGQSTPLEAAQALLAREPKPEML
Km [14]: 6 µM
Km [12]: 101 µM

B4: Archaeoglobus fulgidus DSM 4304 GPD (gene SEQ ID NO: 14) (Archaeoglobus fulgidus DSM 4304) (protein)
chain: MIVSILGAGAMGSALSVPLVDNGNEVRIWGTEFDTEILKSISAGREHPRLGVKLNGVEIFWPEQLEKCLENAEVVLLGVSTDGVLPVMSRILPYLKDQYIVLISKGLIDFDNSVLTVPEAVWRLKHDLRERTVAITGPAIAREVAKRMPTTVVFSSPSESSANKMKEIFETEYFGVEVTTDIIGTEITSALKNVYSIAIAWIRGYESRKNVEMSNAKGVIATRAINEMAELIEILGGDRETAFGLSGFGDLIATFRGGRNGMLGELLGKGLSIDEAMEELERRGVGVVEGYKTAEKAYRLSSKINADTKLLDSIYRVLYEGLKVEEVLFELATFK
Km [15]: 7 µM
Km [16]: 5 µM

B5: Kangiella koreensis GPD (SEQ ID NO: 18; SEQ ID NO: 194) (Kangiella koreensis DSM 16069) (protein)
chain: MSAQLSFAVLGAGSYGTALAVLLARNGHSVQLWARNSQHVVEMQQAKQNTKYLPDVAFPDNLSVTDQIDVALKHHPIILVAVPSHAFRDTLYLIKPLVNQDSKLVWASKGLDPDSGDLLGNVLKNILGDNMPHAILSGPTFAKEMAIGMPTAITLAANNDDFAEQLALALHNERFRVYTSDDIVGVQVGGAVKNVVAIGAGIADGLGYGANARTALITRGLAEMTRLGVAAGGKQETFNGMAGMGDLVLTCTDNQSRNRRFGLALGKGANRDEAEHAIGQVVEGVRNAKEVKMLAERLGVEMPISDAIYRIIYEGVDARQAAHELLTRDLKSEG
Km [14]: 1 µM
Km [12]: 2018 µM
